According to US20150079113A1:

Molecular target: α5 integrin (endogenous) (mouse) (UniProt P11688)
Experiment: cell-based or functional assay

Sequence of α5 integrin (endogenous) (mouse) (P11688 45-1053): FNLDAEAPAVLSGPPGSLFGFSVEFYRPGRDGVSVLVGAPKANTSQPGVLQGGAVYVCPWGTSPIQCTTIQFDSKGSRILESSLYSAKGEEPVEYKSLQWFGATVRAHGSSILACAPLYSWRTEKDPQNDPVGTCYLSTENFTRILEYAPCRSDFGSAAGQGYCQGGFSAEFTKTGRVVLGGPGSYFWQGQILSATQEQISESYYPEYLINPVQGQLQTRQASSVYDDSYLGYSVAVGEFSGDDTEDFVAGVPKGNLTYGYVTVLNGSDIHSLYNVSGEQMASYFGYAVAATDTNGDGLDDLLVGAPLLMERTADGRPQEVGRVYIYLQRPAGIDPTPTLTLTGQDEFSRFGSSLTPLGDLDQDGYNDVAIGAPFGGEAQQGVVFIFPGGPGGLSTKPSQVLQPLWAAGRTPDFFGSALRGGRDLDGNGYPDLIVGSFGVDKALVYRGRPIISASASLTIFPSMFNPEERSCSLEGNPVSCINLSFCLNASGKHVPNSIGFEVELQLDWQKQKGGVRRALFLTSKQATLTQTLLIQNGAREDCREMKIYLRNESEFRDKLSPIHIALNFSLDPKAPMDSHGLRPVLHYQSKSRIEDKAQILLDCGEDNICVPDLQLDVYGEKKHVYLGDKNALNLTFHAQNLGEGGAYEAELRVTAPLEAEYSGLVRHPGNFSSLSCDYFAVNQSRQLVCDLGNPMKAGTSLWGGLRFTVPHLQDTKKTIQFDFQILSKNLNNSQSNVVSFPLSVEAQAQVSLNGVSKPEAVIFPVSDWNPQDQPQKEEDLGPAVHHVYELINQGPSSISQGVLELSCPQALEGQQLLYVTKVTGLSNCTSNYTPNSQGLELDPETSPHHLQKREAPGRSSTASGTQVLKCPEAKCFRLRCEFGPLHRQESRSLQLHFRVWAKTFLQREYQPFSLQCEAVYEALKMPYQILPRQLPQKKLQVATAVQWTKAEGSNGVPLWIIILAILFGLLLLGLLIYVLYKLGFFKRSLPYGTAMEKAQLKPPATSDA

t1/2 of fluorescence recovery (FRAP) in nascent, peripheral adhesions, cells plated for 30 minutes on FN: 18.9 s
Substance: GFP-Mena (from UniProt Q03173 1-802)
